Reference: patent publication US20180057604A1 (Genentech, published 2018)
“And” between values parts separate entries of the source, which are not always exact repeats. Identical values can stand only once. Like-named read-outs stand apart in the source and are kept apart here.

Experiments:
[1] = target: T1, cyno TfR extracellular domain (analogous construct to human TfR ecd) (cynomolgus monkey, UniProt Q5RDH6 87-760 (Pongo abelii entry)); experiment: SPR, KD on cyno TfR over KD on human TfR
T1 construct: also called cynoTfR ecd
T1 chain: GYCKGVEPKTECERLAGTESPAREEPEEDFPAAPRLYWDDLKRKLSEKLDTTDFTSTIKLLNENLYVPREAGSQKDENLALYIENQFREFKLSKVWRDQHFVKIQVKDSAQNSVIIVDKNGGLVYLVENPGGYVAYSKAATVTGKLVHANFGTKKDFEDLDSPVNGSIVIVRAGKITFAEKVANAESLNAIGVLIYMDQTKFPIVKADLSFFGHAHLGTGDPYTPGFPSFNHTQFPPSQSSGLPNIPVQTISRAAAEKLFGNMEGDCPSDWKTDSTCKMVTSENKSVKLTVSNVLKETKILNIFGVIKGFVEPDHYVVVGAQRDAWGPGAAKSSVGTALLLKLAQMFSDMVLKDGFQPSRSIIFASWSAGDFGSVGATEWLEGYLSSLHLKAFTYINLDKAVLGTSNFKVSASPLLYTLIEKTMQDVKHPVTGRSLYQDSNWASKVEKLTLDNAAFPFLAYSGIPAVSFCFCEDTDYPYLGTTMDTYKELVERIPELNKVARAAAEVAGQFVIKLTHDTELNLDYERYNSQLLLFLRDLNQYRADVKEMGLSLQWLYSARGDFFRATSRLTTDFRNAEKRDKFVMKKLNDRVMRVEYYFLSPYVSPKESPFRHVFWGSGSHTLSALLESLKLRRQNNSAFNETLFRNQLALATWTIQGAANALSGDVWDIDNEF
Experimental: (§1) Antibody affinities were measured using surface plasmon resonance (“SPR”) (Biacore™, GE Healthcare). Anti-His antibody (Qiagen) was coupled onto four different flow cells of a BIACORE™ CM5 sensor chip (Biacore, Inc., Piscataway, N.J.) at between 6000 and 8000 RU. Immobilization was achieved by random coupling through amino groups using a protocol provided by the manufacturer. 10×HBS-P (Biacore, Inc., Piscataway, N.J.) was diluted in water and served as the dilution and running buffer. Purified human or cyno TfR was captured, followed by a 3-fold dilution series of IgG or Fab that was injected at a flow rate of 30 ml/min using the single cycle kinetics method. Affinity constants were determined using a simple 1:1 Langmuir binding model or using a steady state model when kₒₙ or koff was beyond the detection limit. The equilibrium dissociation constant (KD) was calculated as the ratio of association rate constant (kₒₙ) and dissociation rate constant (koff).
(§2) In both cases, the SPR experiments were performed as described above.

[2] = target: T1, cyno TfR extracellular domain …; experiment: SPR, KD on cyno TfR over KD on human TfR
[3] = target: T1, cyno TfR extracellular domain …; experiment: SPR, Fab
Experimental: as §1
(§3) These variants were screened as IgG by ELISA and SPR to identify positions important for binding to human and cyno TfR; the monovalent affinity of selected variants as Fab was also determined. […] Plates were washed with PBS/0.05% Tween 20 and blocked using Superblock blocking buffer in PBS (Thermo Scientific, Hudson, N.H.). Supernatants containing expressed IgG were diluted serially 1:5 and added to the plate for 1 h. […] Plates were washed with PBS/0.05% Tween 20 and 1:1000 diluted HRP-Goat-anti kappa (Southern Biotech) was added the plate and incubated for 1 h at room temperature. Plates were washed with PBS/0.05% Tween 20 and detected using TMB substrate (BioFX Laboratories, Owings Mills). Binding was also assessed by SPR, as described above.

[4] = target: T2, human TfR extracellular domain with N-terminal His tag (human, UniProt P02786 89-760); experiment: SPR, Fab
T2 construct: Biotinylated in some assays; also called huTfR; HuTfR
Target sequence in this assay (P02786 89-760 G142S): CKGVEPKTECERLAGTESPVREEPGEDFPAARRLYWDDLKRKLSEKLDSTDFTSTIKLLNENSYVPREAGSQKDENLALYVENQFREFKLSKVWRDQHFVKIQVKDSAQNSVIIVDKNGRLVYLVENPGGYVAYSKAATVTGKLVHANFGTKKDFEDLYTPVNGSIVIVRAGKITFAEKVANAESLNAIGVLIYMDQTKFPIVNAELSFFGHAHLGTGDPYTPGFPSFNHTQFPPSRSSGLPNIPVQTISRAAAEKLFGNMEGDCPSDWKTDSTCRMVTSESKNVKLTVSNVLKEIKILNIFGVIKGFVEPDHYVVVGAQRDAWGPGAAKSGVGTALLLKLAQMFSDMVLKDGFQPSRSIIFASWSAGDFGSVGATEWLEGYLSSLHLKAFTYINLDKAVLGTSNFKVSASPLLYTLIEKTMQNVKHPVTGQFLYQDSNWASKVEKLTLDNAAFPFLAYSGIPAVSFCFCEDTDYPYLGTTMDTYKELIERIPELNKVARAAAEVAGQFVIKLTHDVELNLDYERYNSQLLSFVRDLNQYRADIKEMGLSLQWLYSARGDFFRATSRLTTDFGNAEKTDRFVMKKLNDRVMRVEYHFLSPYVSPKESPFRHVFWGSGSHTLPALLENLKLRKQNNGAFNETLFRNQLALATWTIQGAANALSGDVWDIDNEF
Experimental: as §1, §3

[5] = target: T1, cyno TfR extracellular domain …; experiment: SPR, TfR captured by anti-His, Fab injected;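 for KD: single cycle kinetics with a Fab dilution series, fitted by a one-to-one Langmuir model or a steady state model, KD taken as koff over kon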
Experimental: as §1, §2

[6] = target: T2, human TfR extracellular domain with …; experiment: SPR, TfR captured by anti-His, Fab injected;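 for KD: single cycle kinetics with a Fab dilution series, fitted by a one-to-one Langmuir model or a steady state model, KD taken as koff over kon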
Experimental: as §1, §2

[7] = target: T1, cyno TfR extracellular domain …; experiment: SPR, TfR captured by anti-His, Fab injected;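 for KD: single cycle kinetics with a Fab dilution series, fitted by a one-to-one Langmuir model or a steady state model, KD taken as koff over kon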
Experimental: as §1, §2

[8] = target: T2, human TfR extracellular domain with …; experiment: SPR, TfR captured by anti-His, Fab injected; remark: listed apart in the source;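 for KD: single cycle kinetics with a Fab dilution series, fitted by a one-to-one Langmuir model or a steady state model, KD taken as koff over kon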
Target sequence in this assay (P02786 89-760 G142S): as above
Experimental: as §1, §2

[9] = target: T1, cyno TfR extracellular domain …; experiment: SPR, KD on cyno TfR over KD on human TfR
Experimental: as §1, §2

[10] = target: T1, cyno TfR extracellular domain …; experiment: SPR, TfR captured by anti-His, Fab injected
Experimental: as §1

[11] = target: T2, human TfR extracellular domain with …; experiment: SPR, TfR captured by anti-His, Fab injected; remark: listed apart in the source
Experimental: as §1

[12] = target: T1, cyno TfR extracellular domain …; experiment: SPR, biotinylated TfR on streptavidin, bispecific injected
Experimental: (§4) Affinity of the bispecific antibodies for human and cynomolgus monkey TfR was determined using surface plasmon resonance (SPR) (Biacore™, GE Healthcare). Streptavidin (Sigma) was coupled onto four different flow cells of a series S BIACORE™ CM5 sensor chip (Biacore, Inc., Piscataway, N.J.) at between 2000 and 3000 RU. Immobilization was achieved by random coupling through amino groups using a protocol provided by the manufacturer. 10×HBS-P (Biacore, Inc., Piscataway, N.J.) was diluted in water and served as the dilution and running buffer. Purified and biotin labeled human or cyno TfR was captured, followed by a 3-fold dilution series of bispecific antibody that was injected at a flow rate of 30 ml/min using the single cycle kinetics method. Affinity constants were determined using a simple 1:1 Langmuir binding model or using a steady state model when kₒₙ or koff was beyond the detection limit. The equilibrium dissociation constant (KD) was calculated as the ratio of association rate constant (kon) and dissociation rate constant (koff).

[13] = target: T2, human TfR extracellular domain with …; experiment: as above
Experimental: as §4

[14] = target: T1, cyno TfR extracellular domain …; experiment: SPR SCK 1:1 fit, IgG
Experimental: as §1, §3

[15] = target: T2, human TfR extracellular domain with …; experiment: SPR SCK 1:1 fit, IgG
Target sequence in this assay (P02786 89-760 G142S): as above
Experimental: as §1, §3

[16] = target: T1, cyno TfR extracellular domain …; experiment: ELISA, TfR-coated plate, IgG
Experimental: (§5) The Hu/Cy binding ELISA was performed in maxisorp plates coated with 2 μg/ml of purified human or cyno TfR in PBS at 4° C. overnight. Plates were washed with PBS/0.05% Tween 20 and blocked using Superblock blocking buffer in PBS (Thermo Scientific, Hudson, N.H.). Cell culture supernatants containing the expressed Ala scan variant IgGs were serially diluted 1:5 and added to the wells for 1 h. Plates were washed with PBS/0.05% Tween 20 and 1:1000 diluted HRP-Goat-anti human Fcγ (Jackson ImmunoResearch) was added the plate and incubated for 1 hour at room temperature. Plates were washed with PBS/0.05% Tween 20 and detected using TMB substrate (BioFX Laboratories, Owings Mills).

[17] = target: T2, human TfR extracellular domain with …; experiment: ELISA, TfR-coated plate, IgG
Experimental: as §5

[18] = target: T2, human TfR extracellular domain with …; experiment: ELISA, immobilized huTfR, with and without 6.3 uM holo-Tf
Experimental: Plates were washed with PBS/0.05% Tween 20 and blocked using Superblock blocking buffer in PBS (Thermo Scientific, Hudson, N.H.). […] Plates were washed with PBS/0.05% Tween 20 and 1:1000 diluted HRP-Goat-anti human Fcγ (Jackson ImmunoResearch) was added to the plate and incubated for 1 h at room temperature. Plates were washed with PBS/0.05% Tween 20 and detected using TMB substrate (BioFX Laboratories, Owings Mills).

[19] = target: T1, cyno TfR extracellular domain …; experiment: ELISA, IgG
Experimental: (§6) Affinity variants were generated by making individual alanine substitutions in CDR-L3 or CDR-H3 using standard techniques. These variants were screened as IgG by ELISA and SPR to identify positions important for binding to human and cyno TfR; the monovalent affinity of selected variants as Fab was also determined. […] Plates were washed with PBS/0.05% Tween 20 and blocked using Superblock blocking buffer in PBS (Thermo Scientific, Hudson, N.H.). Supernatants containing expressed IgG were diluted serially 1:5 and added to the plate for 1 h. […] Plates were washed with PBS/0.05% Tween 20 and 1:1000 diluted HRP-Goat-anti kappa (Southern Biotech) was added the plate and incubated for 1 h at room temperature. Plates were washed with PBS/0.05% Tween 20 and detected using TMB substrate (BioFX Laboratories, Owings Mills).

[20] = target: T2, human TfR extracellular domain with …; experiment: ELISA, IgG
Target sequence in this assay (P02786 89-760 G142S): as above
Experimental: as §6

[21] = target: T1, cyno TfR extracellular domain …; experiment: SPR, IgG;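 note: His-tagged TfR captured via immobilized anti-His antibody on a CM5 chip, antibody injected in 3-fold dilution series by single cycle kinetics, 1:1 Langmuir or steady-state fit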
[22] = target: T2, human TfR extracellular domain with …; experiment: SPR, IgG;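 note: His-tagged TfR captured via immobilized anti-His antibody on a CM5 chip, antibody injected in 3-fold dilution series by single cycle kinetics, 1:1 Langmuir or steady-state fit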
Target sequence in this assay (P02786 89-760 G142S): as above

[23] = target: TfR (species not stated, Table 15); experiment: SPR, Fab

B1: Hu15G11.v5.Fab (Fab, V domains shown)
VH: EVQLVQSGAEVKKPGASVKVSCKASGYTFTSYWMHWVRQAPGQRLEWIGEINPTNGRTNYIEKFKSRATLTVDKSASTAYMELSSLRSEDTAVYYCARGTRAYHYWGQGTMVTVSS
VL: DIQMTQSPSSLSASVGDRVTITCRASDNLYSNLAWYQQKPGKSPKLLVYDATNLADGVPSRFSGSGSGTDYTLTISSLQPEDFATYYCQHFWGTPLTFGQGTKVEIK
notes: Fab
For B1, the Cy/hu ratio [1] was 4, the Cyno/human ratio [2] was 4 and the Kd [3] was 16 nM. It also gave a Kd [4] of 4.7 nM, a koff [5] of 0.0218 s⁻¹ and a kon [5] of 1.41e+06 M⁻¹ s⁻¹. For the same binder, the Kd [6] was 4.7 nM, the koff [6] was 0.00406 s⁻¹ and 0.00364 s⁻¹ and the kon [6] was 456000 M⁻¹ s⁻¹ and 776000 M⁻¹ s⁻¹. It also gave a koff [7] of 0.0127 s⁻¹, a kon [7] of 451000 M⁻¹ s⁻¹ and a koff [8] of 0.00474 s⁻¹. It also gave a kon [8] of 674000 M⁻¹ s⁻¹, a Cy/hu ratio [9] of 3.4 and a koff [10] of 0.0127 s⁻¹. The kon [10] was 451000 M⁻¹ s⁻¹, the koff [11] was 0.00474 s⁻¹ and the kon [11] was 674000 M⁻¹ s⁻¹.

B2: Anti-TfR1/6266.hIgG1.N297G (bispecific antibody, V domains shown)
VH 1: EVQLVQSGAEVKKPGASVKVSCKASGYTFTSYWMHWVRQAPGQRLEWIGEINPTNGRTNYIEKFKSRATLTVDKSASTAYMELSSLRSEDTAVYYCARGTRAYHYWGQGTMVTVSS
VL 1: DIQMTQSPSSLSASVGDRVTITCRASDNLYSNLAWYQQKPGKSPKLLVYDATNLADGVPSRFSGSGSGTDYTLTISSLQPEDFATYYCQHFWGTPLTFGQGTKVEIK
VH 2: EVQLVQSGAEVKKPGSSVKVSCKASGGTLSGYGVSWVRQAPGQGLEWMGNIIPGFGTANYAQKFQGRVTITADESTSTAYMELSSLRSEDTAVYYCARSGGTKYGMLDVWGQGTMVTVSS
VL 2: EIVMTQSPATLSVSPGERATLSCRASQSVSSNLAWYQQKPGQAPRLLIYGASTRATGIPARFSGSGSGTEFTLTISSLQSEDFAVYYCQQLILWPPRTFGGGTKVEIK
notes: Knob-in-hole human IgG1 with N297G
B2 showed a Kd [12] of 23.7 nM and a Kd [13] of 9 nM.

B3: hu15G11.v5 IgG (antibody, V domains shown)
VH: EVQLVQSGAEVKKPGASVKVSCKASGYTFTSYWMHWVRQAPGQRLEWIGEINPTNGRTNYIEKFKSRATLTVDKSASTAYMELSSLRSEDTAVYYCARGTRAYHYWGQGTMVTVSS
VL: DIQMTQSPSSLSASVGDRVTITCRASDNLYSNLAWYQQKPGKSPKLLVYDATNLADGVPSRFSGSGSGTDYTLTISSLQPEDFATYYCQHFWGTPLTFGQGTKVEIK
notes: Human IgG (detected with anti-human Fc gamma); also called humanized 15G11.v5
Work on B3 yielded a Kd [14] of 12 nM, a Kd [15] of 3.3 nM and an EC50 [16] of 1.8 ng/mL. The EC50 [17] was 0.8 ng/mL, the “EC50 (read off the curve)” value [18] was about 5 ng/mL and the EC50 [19] was 20 ng/mL. The EC50 [20] was 16 ng/mL, the Kd [21] was 11.8 nM and the Kd [22] was 3.33 nM.

B4: Hu15G11.HC52A Fab (Fab, V domains shown)
VH: EVQLVQSGAEVKKPGASVKVSCKASGYTFTSYWMHWVRQAPGQRLEWIGEIAPTNGRTNYIEKFKSRATLTVDKSASTAYMELSSLRSEDTAVYYCARGTRAYHYWGQGTMVTVSS
VL: DIQMTQSPSSLSASVGDRVTITCRASDNLYSNLAWYQQKPGKSPKLLVYDATNLADGVPSRFSGSGSGTDYTLTISSLQPEDFATYYCQHFWGTPLTFGQGTKVEIK
notes: Fab; also called antiTfR.52A.Fab; 15G11.52A Fab
Work on B4 yielded a Kd [23] of 55 nM.
